One molecule from US20230143031A1 (published 2023) can be followed below.

The assay has as its target T1, NY-ESO antigen (NY-ESO-1) peptide on HLA-A*02:01 (human).
T1 peptide: SLLMWITQC
In words: multimer staining.

B1: anti-NY-ESO TCR (TCR, V domains shown)
Valpha: KQEVTQIPAALSVPEGENLVLNCSFTDSAIYNLQWFRQDPGKGLTSLLLIQSSQREQTSGRLNASLDKSSGRSTLYIAASQPGDSATYLCAGDNNAGNMLTFGGGTRLMVKP
Vbeta: DAMVIQNPRYQVTQFGKPVTLSCSQTLNHNVMYWYQQKSSQAPKLLFHYYDKDFNNEADTPDNFQSRRPNTSFCFLDIRSPGLGDAAMYLCATSVTDGTALTGELFFGEGSRLTVL
In the case of B1, the binding result is recorded as “recognises”.
